Data: patent US8809287B2, “Compositions and methods for altering Wnt autocrine signaling” (Icahn School of Medicine at Mount Sinai, priority 2004, dated 2014)

B1: FRP1: human secreted Frizzled Related Protein 1, Wnt antagonist; expressed from pBabe-derived retrovirus with carboxy-terminal HA tag (protein, UniProt Q8N474 32-314, looked up)
Secreted frizzled-related …: SEYDYVSFQSDIGPYQSGRFYTKPPQCVDIPADLRLCHNVGYKKMVLPNLLEHETMAEVKQQASSWVPLLNKNCHAGTQVFLCSLFAPVCLDRPIYPCRWLCEAVRDSCEPVMQFFGFYWPEMLKCDKFPEGDVCIAMTPPNATEASKPQGTTVCPPCDNELKSEAIIEHLCASEFALRMKIKEVKKENGDKKIVPKKKKPLKLGPIKKKDLKKLVLYLKNGADCPCHQLDNLSHHFLIMGRKVKSQYLLTAIHKWDKKNKEFKNFMKKMKNHECPTFQSVFK
modifications: C-terminal HA tag
notes: human secreted Frizzled Related Protein 1, Wnt antagonist; expressed from pBabe-derived retrovirus with carboxy-terminal HA tag
B2: DKK1: Dickkopf-1, secreted Wnt antagonist protein that binds Wnt co-receptor LRP6; used purified, in conditioned media or retrovirally expressed with HA tag (protein, UniProt O94907 32-266, looked up)
Dickkopf-related protein 1: TLNSVLNSNAIKNLPPPLGGAAGHPGSAVSAAPGILYPGGNKYQTIDNYQPYPCAEDEECGTDEYCASPTRGGDAGVQICLACRKRRKRCMRHAMCCPGNYCKNGICVSSDQNHFRGEIEETITESFGNDHSTLDGYSRRTTLSSKMYHTKGQEGSVCLRSSDCASGLCCARHFWSKICKPVLKEGQVCTKHRRKGSHGLEIFQRCYCGEGLSCRIQKDHHQASNSSRLHTCQRH
modifications: HA tag in some uses

Experiments:
uncomplexed β-catenin [1] = assay: Uncomplexed β-catenin in A1847 ovarian tumor cells; assay type: cell-based, human; details: FRP1-HA retrovirus
Method: (§1) β-catenin levels were assessed using the GST-E-cadherin binding assay, which has been previously described (Bafico et al., (1998) Oncogene 16:2819-2825). Briefly, bacterially expressed GST-E-cadherin was purified with glutathione-Sepharose beads and incubated with 1 mg of each cell lysate. The GST-E-cadherin/[…]-catenin complex bound to the beads was recovered by centrifugation and analyzed by SDS-PAGE followed by immunoblotting. The uncomplexed β-catenin was detected using a monoclonal antibody to β-catenin (Transduction Laboratories). Unphosphorylated β-catenin was detected with a monoclonal antibody specific for β-catenin dephosphorylated at residues 27-37 (Alexis, Läufelfingen, Switzerland). FRP1-HA and DKK1-HA were detected with an anti-HA monoclonal antibody (Hybridoma Center, Mount Sinai School of Medicine, New York).
(§2) Breast (MDAMB231, ATCC No. HTB-26) and ovarian A1847 tumor cell lines were infected with vector alone or FRP 1-HA (described in Example 1) retroviruses and marker selected. […] Breast (MDAMB231) and ovarian A1847 tumor cell lines were analyzed for uncomplexed β-catenin and FRP 1-HA by immunoblot analysis with either an anti-β-catenin antibody (Transduction Laboratories) or an anti-HA antibody (Hybridoma Center, Mount Sinai School of Medicine, New York). […]

HCT116 cell lines = assay: Tumorigenicity of HCT116 cell lines injected subcutaneously in nude mice; assay type: in vivo
Method: To assess the effects of Wnt autocrine inhibition in vivo, tumorigenicity experiments were performed utilizing parental or β-catenin wild type allele containing HCT116 cell lines, in which stable marker selected mass cultures expressing FRP1 were obtained. Parental and wild type β-catenin allele containing HCT116 cells were transfected with either vector control or FRP1. Marker selected mass cultures of each were subcutaneously injected in 6 week old nude mice at 2.5×10^6 cells per site. Tumor growth was monitored at weekly intervals as previously described (Pierce et al. (1991) Oncogene 6:1189-1194). Values in FIG. 7F represent the mean (± standard deviation) of 4 inoculation cites per cell line. […] All of these findings establish that autocrine Wnt signaling can be present in human colon carcinoma cells that harbor downstream lesions within the canonical pathway.

uncomplexed β-catenin [2] = assay: Uncomplexed β-catenin in MDAMB231 breast tumor cells; assay type: cell-based, human; details: FRP1-HA retrovirus
Method: as §1, §2

uncomplexed β-catenin [3] = assay: Uncomplexed β-catenin in PAI ovarian tumor cells; assay type: cell-based, human; details: DKK1-HA retrovirus
Method: as §1, §2

Molecule | constitutively up-regulated β-catenin (uncomplexed β-catenin [1]) | tumor growth (HCT116 cell lines; parental HCT116 cells expressing FRP1, subcutaneous in nude mice) | tumor forming ability (HCT116 cell lines; β-catenin wild type allele containing HCT116 cells expressing FRP1, subcutaneous in nude mice) | constitutively up-regulated β-catenin (uncomplexed β-catenin [2]) | constitutively up-regulated β-catenin (uncomplexed β-catenin [3])
B1 | inhibition of constitutively up-regulated β-catenin | no effect | striking reduction | inhibition of constitutively up-regulated β-catenin | –
B2 | – | – | – | – | inhibition of constitutively up-regulated β-catenin
